# Results as given in paper PMC8864220, “Transcriptional Regulation of the Creatine Utilization Genes of Corynebacterium glutamicum ATCC 14067 by AmtR, a Central Nitrogen Regulator”.
# T1: AmtR (Corynebacterium glutamicum ATCC 14067, UniProt H7C699 1-222)
# T1 sequence: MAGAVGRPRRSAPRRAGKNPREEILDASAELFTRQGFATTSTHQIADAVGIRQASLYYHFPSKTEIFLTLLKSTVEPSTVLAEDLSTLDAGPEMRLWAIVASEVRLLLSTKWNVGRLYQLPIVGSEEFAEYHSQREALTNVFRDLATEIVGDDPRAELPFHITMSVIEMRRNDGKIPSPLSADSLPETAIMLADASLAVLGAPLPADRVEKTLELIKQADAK
# Molecular target: T1, AmtR
# Test: EMSA; EMSA, 20 ul: 10 mM Tris pH 7.0, 50 mM KCl, 1 mM DTT, 5 mM MgCl (so in the source), 10 mM EDTA, 2.5% glycerol, 0.05% NP-40, 50 ng/ul poly(dIdC); 100 ng DNA, 0-0.8 ug AmtR; 6% native PAGE, 0.5x TBE, GelRed; temperature not stated
# Settings: protein: recombinant; tags: C-terminal His6; chain copies: 2; blunt
row,Binder,binding result
1,PcreT-1 (oligos PcrnT-1-S/A) (dsDNA) DNA 1: ACCACCAATGAAACCTATCGGTCTATAGAAATTGACATTGCT DNA 2: AGCAATGTCAATTTCTATAGACCGATAGGTTTCATTGGTGGT,binds
2,PhyuB-1 (dsDNA) DNA 1: TTGAAAACTTTTCGATAGAGCAATAGAAATTTCCCAGCCCAA DNA 2: TTGGGCTGGGAAATTTCTATTGCTCTATCGAAAAGTTTTCAA,binds
3,PhyuB-2 (dsDNA) DNA 1: CCCGGGGTGATTTTCTATCGTGTGATAGGTTTAATTCTGTTG DNA 2: CAACAGAATTAAACCTATCACACGATAGAAAATCACCCCGGG,binds
4,PcreT-2 (oligos PcrnT-2-S/A) (dsDNA) DNA 1: ATTTATATTCTTTTCTATCACCCTATAGAAACATATTGGACG DNA 2: CGTCCAATATGTTTCTATAGGGTGATAGAAAAGAATATAAAT,binds
